Results published in patent US20170298106A1 (ZYNGENIA, published 2017).

How the values were obtained:
[1] = molecular target: T1, angiopoietin-2 (Ang2) (human, UniProt O15123 68-496, limits assumed); test: ELISA on rhAng2-coated wells, MRD-MBP fusion, anti-MBP detection; EC50 by 4 parameter fit
T1 construct: Plain and biotinylated Ang2 are kept as one molecule; also called rhAng2; recombinant Ang2
T1 sequence (looked up): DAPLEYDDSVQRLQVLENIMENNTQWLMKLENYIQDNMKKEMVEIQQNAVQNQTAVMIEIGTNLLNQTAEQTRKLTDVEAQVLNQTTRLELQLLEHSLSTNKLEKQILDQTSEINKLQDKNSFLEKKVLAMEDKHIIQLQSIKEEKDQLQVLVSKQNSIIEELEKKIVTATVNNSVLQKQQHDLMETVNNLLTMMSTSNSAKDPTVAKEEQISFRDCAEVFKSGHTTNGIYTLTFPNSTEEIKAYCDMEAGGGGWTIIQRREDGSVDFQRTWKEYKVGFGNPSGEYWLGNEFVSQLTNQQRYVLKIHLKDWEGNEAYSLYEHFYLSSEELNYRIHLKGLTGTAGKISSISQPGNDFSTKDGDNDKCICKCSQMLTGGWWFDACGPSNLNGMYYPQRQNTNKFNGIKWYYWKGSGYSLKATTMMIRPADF
Procedure: (§1) MBP fusion proteins were serially diluted in Blocking buffer and added to wells for 2 hours at RT. After washing (8×300 μl wash buffer), samples were treated with HRP-mouse anti MBP mAb (NEB, cat # E8038S), diluted 1:4000 in Blocking buffer. After incubation for 1 hour at RT, wells were washed (8×300 μl wash buffer) prior to receiving 100 μl of TMB substrate (KPL Laboratories). Color development was stopped with 100 μl of H₂SO₄, and absorbance was read at 450 nm.
(§2) Bound fusion proteins were detected with anti-MBP mAb. Assayed proteins represent mutational variants of the sequence […] […] (L17D) (SEQ ID NO:107). In this series, the motif MDD within L17D was mutated at the first D to all other possible amino acids (except cysteine). Other MRDs tested were “Lm32 KtoS” and a dimer of Lm32 (2×Lm32).

[2] = molecular target: T1, angiopoietin-2 (Ang2); test: ELISA, MRD-MBP fusions on plate-bound rhAng2, anti-MBP detection
Procedure: as §1, §2

B1: 2×Lm32-MBP fusion (other, not shown: small tags and cut ends)
peptide: PGKGGGSMGAQTNFMPMDNDELLLYEQFILQQGLEGGGSMGAQTNFMPMDNDELLLYEQFILQQGLE
notes: also called Lm32 dimer
[1]
  EC50: 5 pM
[2]
  fold higher affinity than L17D or Lm32 KtoS: > 10 fold
